The values that follow come from patent US20120108503A1.

The target in this test is hepatic leptin receptor (rat) (UniProt Q62959). Description: cell-based or functional assay.
UniProt Q62959, sequence (Q62959 22-1162): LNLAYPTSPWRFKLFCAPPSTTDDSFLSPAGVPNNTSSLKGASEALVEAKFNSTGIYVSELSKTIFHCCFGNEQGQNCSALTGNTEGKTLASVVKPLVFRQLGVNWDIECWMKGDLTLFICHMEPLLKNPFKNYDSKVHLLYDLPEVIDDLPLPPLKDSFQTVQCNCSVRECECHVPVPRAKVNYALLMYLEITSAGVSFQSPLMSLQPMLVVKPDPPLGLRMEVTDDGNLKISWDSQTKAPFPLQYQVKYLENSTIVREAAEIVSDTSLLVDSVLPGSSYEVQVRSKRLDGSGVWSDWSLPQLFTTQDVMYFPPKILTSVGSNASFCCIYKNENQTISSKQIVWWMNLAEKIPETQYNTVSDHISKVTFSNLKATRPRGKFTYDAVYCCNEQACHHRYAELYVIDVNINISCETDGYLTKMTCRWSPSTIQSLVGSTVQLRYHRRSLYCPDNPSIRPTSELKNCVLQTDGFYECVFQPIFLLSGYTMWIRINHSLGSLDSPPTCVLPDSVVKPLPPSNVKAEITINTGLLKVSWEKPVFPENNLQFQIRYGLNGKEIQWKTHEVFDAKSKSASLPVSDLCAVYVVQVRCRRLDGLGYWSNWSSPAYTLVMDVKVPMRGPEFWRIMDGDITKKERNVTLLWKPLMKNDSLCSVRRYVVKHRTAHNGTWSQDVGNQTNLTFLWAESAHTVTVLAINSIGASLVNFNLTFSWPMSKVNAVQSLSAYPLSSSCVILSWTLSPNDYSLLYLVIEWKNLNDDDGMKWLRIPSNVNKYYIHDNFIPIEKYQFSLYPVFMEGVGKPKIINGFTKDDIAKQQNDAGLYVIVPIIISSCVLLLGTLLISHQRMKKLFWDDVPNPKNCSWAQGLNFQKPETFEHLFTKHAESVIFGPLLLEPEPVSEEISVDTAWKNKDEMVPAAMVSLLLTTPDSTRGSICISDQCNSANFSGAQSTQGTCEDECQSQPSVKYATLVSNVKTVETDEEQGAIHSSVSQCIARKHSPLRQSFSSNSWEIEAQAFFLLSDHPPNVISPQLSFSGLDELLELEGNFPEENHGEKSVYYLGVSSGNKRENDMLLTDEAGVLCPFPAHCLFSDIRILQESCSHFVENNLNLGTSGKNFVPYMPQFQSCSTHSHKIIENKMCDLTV

On to “leptin expressed in vivo from adenovirus containing the leptin cDNA (Adv-leptin) (ligand)”, for which the hepatic phosho-STAT-3 was 3 fold.
